Assay [1] has as its system Ad3-GFP virus. Nature of the assay: Competition of Ad3-GFP virus infection on HeLa cells. To be noted: pre-incubation with knob; GFP expression. Type of assay: cell-based, adenovirus serotype 3. The procedure: FIG. 3A-3D. Competition of Ad3 virus by dimerized Ad3 knob mutants. FIG. 3A) Relative attachment of ^3H-labeled Ad3 virus in the presence of dimeric fiber knob mutants. 1.8×10^5 HeLa cells were incubated with Ad3 knob mutants at a concentration of 2.5 and 100 μg/ml on ice for 1 hour. Then 400 pfu/cell of ^3H-Ad3 virus was added on ice for another hour. Unbound virus particles were washed away. Attachment of virus particles incubated with PBS was taken as 100%. N=3. FIG. 3B1-3B2) Competition of Ad3-GFP virus infection on HeLa cells. 1.5×10^5 HeLa cells were seeded into 24 well plates. Cells were incubated with the Ad3 knob mutants at increasing concentrations for one hour at room temperature. 100 pfu/cell of Ad3-GFP virus were then added and GFP expression was analyzed 18 hours later by flow cytometry. FIG. 3B1) percentage of GFP positive cells. FIG. 3B2) mean fluorescence intensity. N=3. The standard deviation was less than 10%. FIG. 3C) Relative attachment of ^3H-labeled Ad3 virus in the presence of dimeric fiber knob mutants with multiple mutations. The study was performed as described in […]) The standard deviation was less than 10%. FIG. 3D) Competition of Ad3-GFP virus infection on HeLa cells. The study was performed as described in FIG. 3C) The standard deviation was less than 10%.
FIG. 9A1-9C. Analysis of dimeric Ad3 fiber knob mutants with increased affinity to DSG2. FIG. 9A1-9A2) Competition of Ad3-GFP virus infection on HeLa cells with dimeric affinity-enhanced mutant Y250F and JO-1 (dimeric wt Ad3 fiber knob). The experimental setting is as described for FIG. 3C. FIG. 9A1) percentage of GFP positive cells. FIG. 9A2) mean fluorescence intensity. N=3. The standard deviation was less than 10%. […] 100 pfu/cell of Ad3GFP virus were then added and GFP expression was analyzed 18 hours later. […]
Functional validation. […] Transduction was measured based on GFP expression (FIG. 3B). […] Dimeric Ad3 knob mutants with combined mutations were also analyzed for their ability to compete with Ad3 virus for attachment (FIG. 3C) and infection (FIG. 3D).

Assay [2] concerns the target T1, DSG2 (Homo sapiens, UniProt Q14126).
T1 construct: Western blot using soluble recombinant DSG2 as a probe; purchased Leinco Technologies, Inc. (St. Louis, MO)
T1 sequence (Q14126 50-609 limits assumed): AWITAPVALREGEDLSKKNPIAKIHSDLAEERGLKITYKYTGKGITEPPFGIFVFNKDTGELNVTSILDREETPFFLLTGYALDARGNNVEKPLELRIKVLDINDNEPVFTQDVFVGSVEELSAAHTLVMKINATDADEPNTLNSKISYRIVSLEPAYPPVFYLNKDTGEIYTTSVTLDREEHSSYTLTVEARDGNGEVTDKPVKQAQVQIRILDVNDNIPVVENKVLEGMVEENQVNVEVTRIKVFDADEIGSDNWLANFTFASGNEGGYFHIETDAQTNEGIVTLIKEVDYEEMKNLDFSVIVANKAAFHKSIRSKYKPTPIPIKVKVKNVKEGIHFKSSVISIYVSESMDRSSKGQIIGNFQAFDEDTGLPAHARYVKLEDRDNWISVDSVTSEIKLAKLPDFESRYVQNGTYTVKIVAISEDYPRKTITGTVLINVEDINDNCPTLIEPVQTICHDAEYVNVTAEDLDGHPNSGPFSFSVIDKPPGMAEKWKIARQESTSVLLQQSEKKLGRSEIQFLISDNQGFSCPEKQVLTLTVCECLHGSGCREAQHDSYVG
Nature of the assay: Surface plasmon resonance of Ad3 fiber knobs on immobilized DSG2. The format is binding. The following applies: affinity to DSG2. The procedure: FIG. 7A-7B. SPR analysis of non-dimerized Ad3 fiber knob interactions with DSG2. FIG. 7A) DSG2 was immobilized on sensorchips, and background was automatically subtracted from the control flow cell. The Ad3 fiber knobs (w/o dimerization domain: “noDD”) were injected for 3 minutes at 2.5 μg/ml followed by a 2.5 minutes dissociation period. FIG. 7B) Summary of SPR data. […] The extracted data are resumed in the table. Wt=Ad3 fiber knob without mutations FIG. 8A-8G. Electron microscopy and 3D structure of Ad3 fiber knob mutant JO-2.
Surface Plasmon Resonance: Acquisitions were done on a BIAcore 3000 instrument. HBS-N (GE-Healthcare, Pittsburgh, PA) supplemented with 2 mM CaCl2) was used as running buffer in all experiments at a flow rate of 5 [l/min. Immobilization on CM4 sensorchip (BIAcore) was performed using DSG2 at 10 μg/ml diluted in 10 mM Acetate buffer pH 4.5 injected for 10 minutes on ethyl(dimethylaminopropyl) carbodiimide (EDC)/N-Hydroxysuccinimide (NHS) activated flow-cell. A control flow-cell was activated by (EDC/NHS) and inactivated by ethanolamine. Different concentrations of Ad3 fiber knob proteins were injected for 3 minutes association followed by 2.5 minutes dissociation time, and the signal was automatically subtracted from the background of the ethanolamine deactivated EDC-NHS flow cell. Kinetic and affinity constants were calculated using the BIAeval software.
For orientation: In SPR one partner is held on a chip, and binding of the other changes the refractive index at the surface.

B1: D261N (protein)
chain: MKVSALKEKVSALKEKVSALKEKVSALKEKVSALKEGSGGGSGGGSGGGSNSIALKNNTLWTGPKPEANCIIEYGKQNPDSKLTLILVKNGGIVNGYVTLMGASDYVNTLFKNKNVSINVELYFDATGHILPDSSSLKTDLELKYKQTADFSARGFMPSTTAYPFVLPNAGTHNENYIFGQCYYKASNGALFPLEVTVMLNKRLPDSRTSYVMTFLWSLNAGLAPETTQATLITSPFTFSYIREDD
As for B1, the “Inhibition of Ad3-GFP infection of HeLa cells, in words” value in assay [1] is reported as “least reduced”.

B2: JO-4 (protein)
chain: MKVSALKEKVSALKEKVSALKEKVSALKEKVSALKEGSGGGSGGGSGGGSNSIALKNNTLWTGPKPEANCIIEYGKQNPDSKLTLILVKNGGIVNGYVTLMGASDYVNTLFKNKNVSINVELYFDATGHILPDSSSLKTDLELKYKQTADFSARGFMPSTTAYPFVLPNAGTHNENFIFGQCYYKASDGALFPLEVTVMLNKRLPDSRTSYVMTFLWSLNAGLAPETTQATLITSPFTFSYIREDD
For the molecule B2, binding in assay [2] was characterised by a dissociation constant (Kd) of 11.4 nM.

The values are drawn from patent US12466859B2, “Desmoglein 2 (DSG2) binding proteins and uses therefor” (UNIVERSITY OF WASHINGTON THROUGH ITS CENTER FOR …, priority 2013, dated 2025).
